According to article PMC3180432:

Key:
B7.1-Fc (mouse) = B7.1-Fc (mouse) (UniProt Q00609); assay: SPR; BIAcore 2000, CM5 chip, ligand immobilised by amine coupling, analyte protein injected at different molarities at 10 uL/min, HBS (0.01 M Hepes pH 7.4, 0.15 M NaCl, 0.005% P20), 25°C
B7-H1-Fc (mouse) = B7-H1-Fc (mouse) (UniProt Q9EP73); assay: as above

“B7-H1-Fc (from UniProt Q9EP73 19-239) (Fc fusion)” was tested, and the Kd (B7.1-Fc (mouse)) was 1070 nM.

Work on “B7.1-Fc (from UniProt Q00609 38-246) (Fc fusion)” yielded a Kd (B7-H1-Fc (mouse)) of 380 nM.

With “PD-1-Fc (from UniProt Q02242 25-169) (Fc fusion)” the Kd (B7-H1-Fc (mouse)) was 820 nM.
